The results in this text go back to the Human Domainome abundance scans (Beltran et al. 2025).

B1: PDZ and LIM domain protein 2, residues 284 to 339; numbered along this chain, Q96JY6 (parent)
chain: HTCEKCSTSIANQAVRIQEGRYRHPGCYTCADCGLNLKMRGHFWVGDELYCEKHAR

± gives the uncertainty stated by the source.

Variants of B1 are the subject of this series. Briefly: abundance fitness (aPCA) (normalised: wild type 0, dead -1); higher = more abundant; growth selection in yeast, the domain comes from the species named. As to conditions: Homo sapiens.
Turning to HTCEKCSTSIANQAVRIQEGRYRHPGCYTCAGCGLNLKMRGHFWVGDELYCEKHAR [D32G], the abundance fitness is -0.178 ± 0.054.
To HTCEKCSTSIANQNVRIQEGRYRHPGCYTCADCGLNLKMRGHFWVGDELYCEKHAR [A14N] belongs -0.023 ± 0.12; to HTCEKCSTSIANQAVRIQEGRYRHPGCYTCADCGLNLKMRGRFWVGDELYCEKHAR [H42R], -0.19 ± 0.064.
The figure for HTCEKCSTSIANQAVRIQEGRYAHPGCYTCADCGLNLKMRGHFWVGDELYCEKHAR [R23A] is -0.108 ± 0.067; for HTCEKCSMSIANQAVRIQEGRYRHPGCYTCADCGLNLKMRGHFWVGDELYCEKHAR [T8M] it is -0.099 ± 0.085; for HTCEKCSTSIANQAVRIQEGRYRHPGCYTCADCGLNLKMRGHFWVGDNLYCEKHAR [E48N] it is 0.203 ± 0.14.
With HTCECCSTSIANQAVRIQEGRYRHPGCYTCADCGLNLKMRGHFWVGDELYCEKHAR [K5C], the abundance fitness is -0.068 ± 0.13.
HTCERCSTSIANQAVRIQEGRYRHPGCYTCADCGLNLKMRGHFWVGDELYCEKHAR [K5R]: the abundance fitness stood at 0.261 ± 0.079.
Take HTCEKCSTSIANQAVRKQEGRYRHPGCYTCADCGLNLKMRGHFWVGDELYCEKHAR [I17K]: the abundance fitness is -0.427 ± 0.09.
To HTCEKCSTSIANQAVRIQEGRYRHPGCYTCADNGLNLKMRGHFWVGDELYCEKHAR [C33N] belongs -0.741 ± 0.083; to HTCEKCSTSIANQAVRIQEGRYRHPGCETCADCGLNLKMRGHFWVGDELYCEKHAR [Y28E], -0.548 ± 0.16.
Consider HTCEKDSTSIANQAVRIQEGRYRHPGCYTCADCGLNLKMRGHFWVGDELYCEKHAR [C6D], for which the abundance fitness is -0.15 ± 0.22.
Regarding HTCEKCSTSIANQAVRIQEGRYRHPGCYTCADCNLNLKMRGHFWVGDELYCEKHAR [G34N], the abundance fitness turned out to be 0.108 ± 0.13.
Consider HTCEKCSTSIANQAVRIQEGRYRHPGCYTCADCPLNLKMRGHFWVGDELYCEKHAR [G34P], for which the abundance fitness is -0.356 ± 0.073.
For HTCEKCSTSIANQAVEIQEGRYRHPGCYTCADCGLNLKMRGHFWVGDELYCEKHAR [R16E], the abundance fitness was found to be 0.037 ± 0.091.
Turning to HTCEKCSTSIANQAVRIQEGRYRHPGCYTCADCGLNLKMRGHFWVGDELYCEIHAR [K53I], the abundance fitness was -0.275 ± 0.18.
For the variant HTCNKCSTSIANQAVRIQEGRYRHPGCYTCADCGLNLKMRGHFWVGDELYCEKHAR [E4N], the abundance fitness is 0.14 ± 0.09.
For the variant HTCFKCSTSIANQAVRIQEGRYRHPGCYTCADCGLNLKMRGHFWVGDELYCEKHAR [E4F], the abundance fitness came to 0.075 ± 0.1.
To HTCPKCSTSIANQAVRIQEGRYRHPGCYTCADCGLNLKMRGHFWVGDELYCEKHAR [E4P] belongs -0.592 ± 0.065; to HTCEKCSTSIANQAVRIQEGRYRHPGCYGCADCGLNLKMRGHFWVGDELYCEKHAR [T29G], -0.198 ± 0.067; to HTCEKCSTSIANQAVRIQEGRYRHPGCYMCADCGLNLKMRGHFWVGDELYCEKHAR [T29M], -0.354 ± 0.16.
The figure for HTCEKCSTSIANQAVRIQEGRYRHPGCYWCADCGLNLKMRGHFWVGDELYCEKHAR [T29W] is -0.758 ± 0.12; for HTCEKCSTSIANQAVRIQEGRYRHPGCYTCFDCGLNLKMRGHFWVGDELYCEKHAR [A31F] it is 0.039 ± 0.13; for HTCEKCSTSIANQAVRIQEGRYRHPGCYTCADCGLNLKERGHFWVGDELYCEKHAR [M39E] it is 0.286 ± 0.063.
The figure for HTCEKCSTSIANQAVRIQEGRYRHPQCYTCADCGLNLKMRGHFWVGDELYCEKHAR [G26Q] is 0.232 ± 0.077.
In the case of HTCEKCSTSIAQQAVRIQEGRYRHPGCYTCADCGLNLKMRGHFWVGDELYCEKHAR [N12Q], the abundance fitness was -0.044 ± 0.11.
To HTCEKCSTSLANQAVRIQEGRYRHPGCYTCADCGLNLKMRGHFWVGDELYCEKHAR [I10L] belongs -0.413 ± 0.066; to HTCEKCSTSRANQAVRIQEGRYRHPGCYTCADCGLNLKMRGHFWVGDELYCEKHAR [I10R], -0.445 ± 0.075; to HTCEKCSTSIANQAVRIQEGRYRHPGCYTCADCGLNSKMRGHFWVGDELYCEKHAR [L37S], -0.614 ± 0.12.
As for HTCEKCSTSIANQAVRIQEGRYRHPGCYTCADCGLNGKMRGHFWVGDELYCEKHAR [L37G], the abundance fitness was -0.288 ± 0.075.
To HTCEKCSTSIANQAVRIQEGRYRHPGCYTCADCGLNLKMRGHFWVGDERYCEKHAR [L49R] belongs -0.885 ± 0.13; to HTCEKCSTSIANQAVRIKEGRYRHPGCYTCADCGLNLKMRGHFWVGDELYCEKHAR [Q18K], -0.141 ± 0.11; to HTCEKCSTSIANQAVRIQEGAYRHPGCYTCADCGLNLKMRGHFWVGDELYCEKHAR [R21A], 0.015 ± 0.071.
Turning to HTCEKCSTSIANQAVRIQEGRYRHPGCYTCADCGLNLKMRGHFWVGDELYCEKKAR [H54K], the abundance fitness was -0.7 ± 0.33.
To HTCEKCSTSIANQAVRIQQGRYRHPGCYTCADCGLNLKMRGHFWVGDELYCEKHAR [E19Q] belongs -0.071 ± 0.13; to HTCEKCSTSIANQAVRIQEGRYRHPGCYTCADCGLNLKMRGHGWVGDELYCEKHAR [F43G], -0.048 ± 0.049; to HTCEKCSTSIANQAVRIQEGRYRHPGCYTCADCGLNLKMRGHFWVFDELYCEKHAR [G46F], -0.624 ± 0.24.
To HTCEKCSTSIANQAVRIQEGRYRHPGCYTCADCGLNLKMRVHFWVGDELYCEKHAR [G41V] belongs -0.434 ± 0.088; to HTCEKCSTSIANQAVRIQEGRYRHPGCYTCADCGLNLKMRGHFWVGDELYCRKHAR [E52R], -0.256 ± 0.064.
To HTCEKCSTSIANQAVRIQEGRYRHPGCYTCADCGLNLKMRGHFWVGDELYCCKHAR [E52C] belongs -0.246 ± 0.1.
For the variant HTCEKCSTSIANQAVRIQEGRYRFPGCYTCADCGLNLKMRGHFWVGDELYCEKHAR [H24F], the abundance fitness was -0.938 ± 0.19.
As to HTCEKCSTSIANQAVRIQEGRYRRPGCYTCADCGLNLKMRGHFWVGDELYCEKHAR [H24R], the abundance fitness was -0.435 ± 0.083.
The figure for HTCEKCSTSIANQAVRIQEGRYRPPGCYTCADCGLNLKMRGHFWVGDELYCEKHAR [H24P] is -0.582 ± 0.086; for HTCEKCSTSIANQAVRIQEGRYRHPGCYTCADCGLNLKMRGHFWVGDELYCEKHRR [A55R] it is 0.005 ± 0.074; for HTCEKCSTSIANQAVRIQEGRYRHPGCYTCADCGLNLKMRGHFWVGDELYCEKHDR [A55D] it is -0.097 ± 0.11.
For HTYEKCSTSIANQAVRIQEGRYRHPGCYTCADCGLNLKMRGHFWVGDELYCEKHAR [C3Y], the abundance fitness was -0.436 ± 0.13.
The figure for HTDEKCSTSIANQAVRIQEGRYRHPGCYTCADCGLNLKMRGHFWVGDELYCEKHAR [C3D] is -1.02 ± 0.31.
